In patent US5763245A, “Method of controlling insects” (priority 1996, dated 1998):

Legend:
boll weevil larvae = assay: Boll weevil larvae bioassay (diet incorporation); format: in vivo
Protocol: Assays for activity against boll weevil larvae are carried out by incorporating the test sample into a agar liquid diet similar to that for southern corn rootworm [Marrone et al., 1985]. The test sample is substituted for the 20% water component. Neonate larvae are allowed to feed on the diet and mortality and growth stunting are evaluated.
Protein concentrations were determined spectrophotometrically with BCA protein reagent [Smith et al., 1985].

European cornborer = assay: Lepidopteran larvae bioassay on treated artificial diet, six days; format: in vivo; conditions: stage lv
Protocol: (§1) Lepidopteran larvae were tested on artificial diet treated with the indicated amount of the A19249 3-hydroxysteroid oxidase (cholesterol oxidase) for six days.

beet armyworm = assay: as above; format: in vivo; conditions: stage lv, dose 100 μg/mL
Protocol: as §1

black cutworm = assay: as above; format: in vivo; conditions: stage lv, dose 100 μg/mL
Protocol: as §1

corn earworm = assay: as above; format: in vivo; conditions: stage lv
Protocol: as §1

fall army worm = assay: as above; format: in vivo; conditions: stage lv, dose 30 μg/mL
Protocol: as §1

pink bollworm = assay: as above; format: in vivo; conditions: stage lv
Protocol: as §1

tobacco budworm = assay: as above; format: in vivo
Protocol: as §1

tobacco hornworm = assay: as above; format: in vivo; conditions: stage lv
Protocol: as §1

tobacco budworm larvae = assay: Extended test with tobacco budworm larvae; format: in vivo; conditions: 100 ppm in artificial diet
Protocol: An extended test was performed with tobacco budworm larvae to test the effect of the stunting noted in the six-day test. Tobacco budworm eggs were added to artificial diet (as described above) containing either buffer or 100 ppm A19249 3-hydroxysteroid oxidase (cholesterol oxidase). After seven days, some mortality as compared to the controls was noted. Surviving larvae were moved to fresh diet (control or treated, as appropriate). Percent mortality (corrected for control mortality) is reported for the 7 day and 10 day periods in Table 2A. The corrected number of larvae was […]

[1] = 3-Hydroxysteroid oxidase assay (spectrophotometric); format: biochemical
Protocol: The identity of the enzyme was confirmed by testing its ability to oxidize a 3-hydroxysteroid, specifically cholesterol. The enzyme is added to a reagent mixture comprising horseradish peroxidase (20 U/mL), phenol (14 mM), 4-amino antipyrine (0.82 mM), Triton® X-100 (0.05%) and phosphate buffer (100 mM, pH 7). The sterol in isopropanol is then added and the absorbance at 500 nm monitored. One unit of activity is defined as the amount of enzyme required to oxidize 1 &mole of sterol per minute at 20% C.
The activity levels of the enzymes are reported in Table 12 for 3-hydroxysteroids representative of various classes of 3-hydroxysteroids.

B1: A19249: 3-hydroxysteroid oxidase produced by streptomycete A19249 collected in Madagascar; 52.5 kDa, SEQ ID NO: 8 (protein)
chain: VNAHQPLSRRRMLGLAALGAAALTGQTTITAAPRAAAATAPGGSGGTFVPAVVIGTGYGAAVSALRLGEAGVSTLMLEMGQLWNQPGPDGNVFCGMLKPDKRSSWFKTRTEAPLGSFLWLDLANRDIDPYAGVLDRVNFDQMSVYVGRGVGGGSLVNGGMAVTPRRSYFQEVLPQVDADEMYGTYFPRANSGLRVNNIDKDWFEQTEWYTFARVARLQAENAGLKTTFVPNVYDWDYMRGEADGTNPKSALAAEVIYGNNHGKVSLDKSYLAAALGTGKVTVETLHQVKTIRQQNDGTYLLTVEQKDPDGKLLGTKEISCRHLFLGAGSLGSIELLLRARETGTLPGLSSEIGGGWGPNGNIMTARANHVWNPTGSKQSSIPALGIDDWDNPDNPVFAEIAPMPAGLETWVSLYLAITKNPERGTFVYDAAKDRADLRWTRDQNAPAVAAAKSLFDRVNKANTTIYRYDLFGKQIKAFADDFCYHPLGGCVLGKATDNYGRVSGYKNLYVTDGSLIPGSIGVNPFVTITALAERNVERVIKEDIAGS
Boll weevil larvae; 5 μg/mL, 175 mUnits per mL
  BollWeevil % Mortality: 10%
  Survivor Stunting: Slight
Boll weevil larvae; 10 μg/mL, 350 mUnits per mL
  BollWeevil % Mortality: 10%
  Survivor Stunting: Moderate
Boll weevil larvae; 15 μg/mL, 525 mUnits per mL
  BollWeevil % Mortality: 5%
  Survivor Stunting: Moderate
Boll weevil larvae; 20 μg/mL, 700 mUnits per mL
  BollWeevil % Mortality: 15%
  Survivor Stunting: Severe
Boll weevil larvae; 40 μg/mL, 1400 mUnits per mL
  BollWeevil % Mortality: 70%
  Survivor Stunting: Severe
Boll weevil larvae; 60 μg/mL, 2100 mUnits per mL
  BollWeevil % Mortality: 60%
  Survivor Stunting: Severe
European cornborer; dose 50 μg/mL
  Stunting: 0
European cornborer; dose 100 μg/mL
  Stunting: 46%
Beet armyworm
  Stunting: 76%
Black cutworm
  Stunting: 68%
Corn earworm; dose 50 μg/mL
  Stunting: 0
Corn earworm; dose 100 μg/mL
  Stunting: 35%
Fall army worm
  Stunting: 0
Pink bollworm; dose 50 μg/mL
  Stunting: 0
Pink bollworm; dose 100 μg/mL
  Stunting: 30%
Tobacco budworm; stage egg/lv, dose 30 μg/mL
  Stunting: 0
Tobacco budworm; stage lv, dose 100 μg/mL
  Stunting: 86%
Tobacco hornworm; dose 30 μg/mL
  Stunting: 0
Tobacco hornworm; dose 100 μg/mL
  Stunting: 30%
Tobacco budworm larvae; interval 7 days
  Percent Mortality (corrected for control mortality): 20%
Tobacco budworm larvae; interval 10 days
  Percent Mortality (corrected for control mortality): 61%
Tobacco budworm larvae; interval 14 days
  Percent Mortality (corrected for control mortality): 80%
[1]; sterol: 20-OH ecdysone
  Relative Rate: < 1
[1]; sterol: campesterol*
  Relative Rate: 65
[1]; sterol: cholesterol
  Relative Rate: 100
[1]; sterol: dehydrocholesterol
  Relative Rate: 13
[1]; sterol: dihydrocholesterol
  Relative Rate: 56
[1]; sterol: ecdysone
  Relative Rate: < 1
[1]; sterol: fucosterol
  Relative Rate: 22
[1]; sterol: lanosterol
  Relative Rate: < 1
[1]; sterol: lathosterol
  Relative Rate: 28
[1]; sterol: sitosterol
  Relative Rate: 88
[1]; sterol: stigmasterol
  Relative Rate: 22
